# Assay results from the FLAb antibody collection.
# Test: patients with anti-drug antibodies; higher = more immunogenic
row,Protein,patients with anti-drug antibodies [%]
1,unnamed (protein) chain 1: EVQLVQSGAEVKKPGATVKISCKVSGYTFTDYYIHWVQQAPGKGLEWMGRVNPDHGDSYYNQKFKDKATITADKSTDTAYMELSSLRSEDTAVYFCARNYLFDHWGQGTLVTVSS chain 2: DIQMTQSPSSVSASVGDRVTITCKASQDVGTAVAWYQQKPGKAPKLLIYWASIRHTGVPSRFSGSGSGTDFTLTISSLQPEDFATYYCHQFATYTFGGGTKVEIK,58.6
2,unnamed (protein) chain 1: QVQLQESGPGLVKPSQTLSLTCTVSGYSISSDFAWNWIRQPPGKGLEWMGYISYSGNTRYQPSLKSRITISRDTSKNQFFLKLNSVTAADTATYYCVTAGRGFPYWGQGTLVTVSS chain 2: DIQMTQSPSSMSVSVGDRVTITCHSSQDINSNIGWLQQKPGKSFKGLIYHGTNLDDGVPSRFSGSGSGTDYTLTISSLQPEDFATYYCVQYAQFPWTFGGGTKLEIK,5
3,unnamed (protein) chain 1: QVQLVQSGAEVKKPGASVKVSCKASGYTFTSYDINWVRQATGQGLEWMGWMNPNSGNTGYAQKFQGRVTMTRNTSISTAYMELSSLRSEDTAVYYCARDPYYYYYGMDVWGQGTTVTVSS chain 2: QSVLTQPPSVSAAPGQKVTISCSGSSSNIENNHVSWYQQLPGTAPKLLIYDNNKRPSGIPDRFSGSKSGTSATLGITGLQTGDEADYYCETWDTSLSAGRVFGGGTKLTVL,0
4,unnamed (protein) chain 1: QVQLVQSGAEVKKPGASVKVSCKASGYTFTDYYMHWVRQAPGQGLEWMGRVNPNRRGTTYNQKFEGRVTMTTDTSTSTAYMELRSLRSDDTAVYYCARANWLDYWGQGTTVTVSS chain 2: DIQMTQSPSSLSASVGDRVTITCSVSSSVSSIYLHWYQQKPGKAPKLLIYSTSNLASGVPSRFSGSGSGTDFTLTISSLQPEDFATYYCQVYSGYPLTFGGGTKVEIK,0
5,unnamed (protein) chain 1: EVQLVESGGGLVQPGGSLRLSCAASGYSFTGHWMNWVRQAPGKGLEWVGMIHPSDSETRYNQKFKDRFTISVDKSKNTLYLQMNSLRAEDTAVYYCARGIYFYGTTYFDYWGQGTLVTVSS chain 2: DIQMTQSPSSLSASVGDRVTITCRASKTISKYLAWYQQKPGKAPKLLIYSGSTLQSGVPSRFSGSGSGTDFTLTISSLQPEDFATYYCQQHNEYPLTFGQGTKVEIK,6.3
6,unnamed (protein) chain 1: EVQLLESGGGLVQPGGSLRLSCAVSGFTFNSFAMSWVRQAPGKGLEWVSAISGSGGGTYYADSVKGRFTISRDNSKNTLYLQMNSLRAEDTAVYFCAKDKILWFGEPVFDYWGQGTLVTVSS chain 2: not shown,0
7,unnamed (protein) chain 1: EVQLLESGGGLVQPGGSLRLSCAASGFTFSSYAMSWVRQAPGKGLEWVSGITGSGGSTYYADSVKGRFTISRDNSKNTLYLQMNSLRAEDTAVYYCAKDPGTTVIMSWFDPWGQGTLVTVSS chain 2: EIVLTQSPGTLSLSPGERATLSCRASQSVRGRYLAWYQQKPGQAPRLLIYGASSRATGIPDRFSGSGSGTDFTLTISRLEPEDFAVFYCQQYGSSPRTFGQGTKVEIK,1
8,unnamed (protein) chain 1: EVQLVESGGGLVQPGGSLRLSCAASGFTFSRYWMSWVRQAPGKGLEWVANIKQDGSEKYYVDSVKGRFTISRDNAKNSLYLQMNSLRAEDTAVYYCAREGGWFGELAFDYWGQGTLVTVSS chain 2: EIVLTQSPGTLSLSPGERATLSCRASQRVSSSYLAWYQQKPGQAPRLLIYDASSRATGIPDRFSGSGSGTDFTLTISRLEPEDFAVYYCQQYGSLPWTFGQGTKVEIK,3.3
9,unnamed (protein) chain 1: QVQLVQSGAEVKKPGSSVKVSCKASGGTFSYYWIEWVRQAPGQGLEWMGEILPGSGTTNPNEKFKGRVTITADESTSTAYMELSSLRSEDTAVYYCARADYYGSDYVKFDYWGQGTLVTVSS chain 2: DIQMTQSPSSLSASVGDRVTITCKASQHVITHVTWYQQKPGKAPKLLIYGTSYSYSGVPSRFSGSGSGTDFTLTISSLQPEDFATYYCQQFYEYPLTFGGGTKVEIK,9
10,unnamed (protein) chain 1: QVQLVQSGSELKKPGASVKVSCKASGYTFTDNNMDWVRQAPGQGLEWMGDINTRSGGSIYNEEFQDRVIMTVDKSTDTAYMELSSLRSEDTATYHCARRKSYGYYLDEWGEGTLVTVSS chain 2: DIQMTQSPSSLSASVGDRVTITCKASRNIERQLAWYQQKPGQAPELLIYQASRKESGVPDRFSGSRYGTDFTLTISSLQPEDIATYYCQQYSDPPLTFGGGTKVEIK,3.5
11,unnamed (protein) chain 1: QVQLQQSGAELVRPGTSVKVSCKASGYAFTNYLIEWVKQRPGQGLEWIGVINPGSGGTNYNEKFKGKATLTADKSSSTAYMQLSSLTSDDSAVYFCARDGPWFAYWGQGTLVTVSA chain 2: NIVMTQSPKSMSMSVGERVTLTCKASENVVTYVSWYQQKPEQSPKLLIYGASNRYTGVPDRFTGSGSATDFTLTISSVQAEDLADYHCGQGYSYPYTFGGGTKLEIK,80
12,unnamed (protein) chain 1: EVQLVESGGGLVQPGGSLRLSCAASGFDFSRYWMSWVRQAPGKGLEWIGEINPDSSTINYAPSLKDKFIISRDNAKNSLYLQMNSLRAEDTAVYYCARPDGNYWYFDVWGQGTLVTVSS chain 2: DIQMTQSPSSLSASVGDRVTITCKASQDVGIAVAWYQQKPGKVPKLLIYWASTRHTGVPDRFSGSGSGTDFTLTISSLQPEDVATYYCQQYSSYPYTFGQGTKVEIK,18.5
13,unnamed (protein) chain 1: QVQLVESGGGVVQPGRSLRLSCAASGFSFSNYGMHWVRQAPGKGLEWVALIWYDGSNEDYTDSVKGRFTISRDNSKNTLYLQMNSLRAEDTAVYYCARWGMVRGVIDVFDIWGQGTVVTVSS chain 2: DIQMTQSPSSVSASVGDRVTITCRASQGISSWLAWYQHKPGKAPKLLIYAASSLQSGVPSRFSGSGSGTDFTLTISSLQPEDFATYYCQQANSFPWTFGQGTKVEIK,0
14,unnamed (protein) chain 1: EVQLVESGGGLVQPGGSLRLSCAASGFTFSSYNMNWVRQAPGKGLEWVSYISSSSSTIYYADSVKGRFTISRDNAKNSLSLQMNSLRDEDTAVYYCARAYYYGMDVWGQGTTVTVSS chain 2: DIQMTQSPSSVSASVGDRVTITCRASQGISGWLAWYQQKPGKAPKFLIYAASTLQSGVPSRFSGSGSGTDFTLTISSLQPEDFATYYCQQANSFPPTFGGGTKVEIK,1
15,unnamed (protein) chain 1: EVQLLQSGPELEKPGASVMISCKASGSSFTGYNMNWVRQNIGKSLEWIGAIDPYYGGTSYNQKFKGRATLTVDKSSSTAYMHLKSLTSEDSAVYYCVSGMEYWGQGTSVTVSS chain 2: EIVMTQSPATLSVSPGERATLSCRSSQSLVHRNGNTYLHWYLQKPGQSPKLLIHKVSNRFSGVPDRFSGSGSGTDFTLKISRVEAEDLGVYFCSQSTHVPPLTFGAGTKLELK,17
16,unnamed (protein) chain 1: EVQLVESGGGLEQPGGSLRLSCAGSGFTFRDYAMTWVRQAPGKGLEWVSSISGSGGNTYYADSVKGRFTISRDNSKNTLYLQMNSLRAEDTAVYYCAKDRLSITIRPRYYGLDVWGQGTTVTVSS chain 2: DIVMTQSPLSLPVTPGEPASISCRSSQSLLYSIGYNYLDWYLQKSGQSPQLLIYLGSNRASGVPDRFSGSGSGTDFTLKISRVEAEDVGFYYCMQALQTPYTFGQGTKLEIK,4
17,unnamed (protein) chain 1: QVQLVQSGAEVKKPGASVKVSCKASGYIFSNYWIQWVRQAPGQGLEWMGEILPGSGSTEYTENFKDRVTMTRDTSTSTVYMELSSLRSEDTAVYYCARYFFGSSPNWYFDVWGQGTLVTVSS chain 2: DIQMTQSPSSLSASVGDRVTITCGASENIYGALNWYQQKPGKAPKLLIYGATNLADGVPSRFSGSGSGTDFTLTISSLQPEDFATYYCQNVLNTPLTFGQGTKVEIK,2
18,unnamed (protein) chain 1: QVQLKESGPGLVAPSQSLSITCTVSGFSLTDYGVRWIRQPPGKGLEWLGVIWGGGSTYYNSALKSRLSISKDNSKSQVFLKMNSLQTDDTAMYYCAKEKRRGYYYAMDYWGQGTSVTVSS chain 2: ENVLTQSPAIMSASPGEKVTMTCRASSSVSSSYLHWYQQKSGASPKLWIYSTSNLASGVPARFSGSGSGTSYSLTISSVEAEDAATYYCQQYSGYPLTFGGGTKLEIK,33.3
19,unnamed (protein) chain 1: EVQLLESGGGLVQPGGSLRLSCAASGFTFSSYAMSWVRQAPGKGLEWVSTISSGGSYTSYPDSVKGRFTISRDNSKNTLYLQMNSLRAEDTAVYYCAKQDYAMNYWGQGTLVTVSS chain 2: DIQMTQSPSSLSASVGDRVTITCKASQDVSTAVAWYQQKPGKAPKLLIYSASYRYTGVPSRFSGSGSGTDFTLTISSLQPEDFATYYCQQHYSTPWTFGGGTKVEIK,9.4
20,unnamed (protein) chain 1: EVQLVESGGGLVQPGGSLRLSCAVSGFSSTNYHVHWVRQAPGKGLEWMGVIWGDGDTSYNSVLKSRFTISRDTSKNTVYLQMNSLRAEDTAVYYCARQLTHYYVLAAWGQGTLVTVSS chain 2: DIQMTQSPSSLSASVGDRVTITCRASEDLYYNLAWYQRKPGKAPKLLIYDTYRLADGVPSRFSGSGSGTDYTLTISSLQPEDFASYYCQQYYKFPFTFGQGTKVEIK,8.9
